Source: paper PMC10442425

Target: recombinant SARS-CoV-2 envelope (E) protein, His-tagged (SARS-CoV-2) (UniProt P0DTC4)
Assay: SPR; Biacore 8K, 25 °C, PBS-P buffer; His-tagged E protein captured on NTA chip; recombinant human CD36 injected at 400 nM to 12.5 nM, parallel kinetics; 1:1 binding model

For “recombinant human CD36 protein (from UniProt P16671 1-472) (receptor)”, the Kd was 55 nM.
